Experimental data reported in US6680174.

Target: mouse GDF-9 receptor on granulosa cells (mouse)
Test: cell-based or functional assay

B1: recombinant mouse GDF-9, cleaved, mature, glycosylated form (21 kD) (ligand, UniProt Q07105 307-441, looked up)
chain: GQKAIRSEAKGPLLTASFNLSEYFKQFLFPQNECELHDFRLSFSQLKWDNWIVAPHRYNPRYCKGDCPRAVRHRYGSPVHTMVQNIIYEKLDPSVPRPSCVPGKYSPLSVLTIEPDGSIAYKEYEDMIATRCTCR
modifications: one N-linked oligosaccharide (single N-linked glycosylation site, Asn325)
B1 gave a COX-2 mRNA (RT-PCR) after 24 hours with 100 ng/ml GDF-9 of 50 fold, an HAS2 expression (RT-PCR) after 5 hours, 50 ng/ml and 100 ng/ml mGDF-9 against 10 ng/ml of 5 to 10 fold and an HAS2 expression (RT-PCR), granulosa cells cultured ~20 hrs with mGDF-9 media, against CHO control of 10 fold. It also gave an HAS2 mRNA (Northern blot, 4.8 kb and 3.2 kb forms) after 5 hours with 50 ng/ml GDF-9 of 9.7 fold, an LH receptor mRNA (RT-PCR) with 10 ng/ml FSH, control-treated against cells treated with 100 ng/ml GDF-9 of 30 fold and a cumulus expansion of oocytectomized complexes cultured 18 hours with 100 ng/ml GDF-9 (out of 44 complexes) of 40. For the same binder, the fold decrease in HAS2 expression without GDF-9 (0-24 hours) against the peak level induced by 100 ng/ml GDF-9 was 10 fold, the uPA RT-PCR band intensity at 5 hours, 100 ng/ml GDF-9, normalized to HPRT was 15 % of control and the uPA RT-PCR band intensity at 9 hours, 100 ng/ml GDF-9, normalized to HPRT was 9 % of control. The uPA mRNA (Northern blot) with 50 ng/ml GDF-9 was 40 % of control.
